What was measured:
[1] = biological target: the molecule itself; assay: SEC-MALLS; 100-400 µM loaded in 100 µL on Superdex INCREASE 200 10/300 GL in Acetate Buffer (50 mM sodium acetate, 300 mM NaCl, 1 mM TCEP pH 5.0), 1.0 mL/min
[2] = biological target: the molecule itself; assay: AUC; multispeed sedimentation equilibrium (18,000, 21,000, 26,000 rpm), Acetate Buffer, global fit to a monomer-dimer-tetramer model; constant of: dimer to monomers (KD1-2)
[3] = biological target: the molecule itself; assay: AUC; multispeed sedimentation equilibrium (18,000, 21,000, 26,000 rpm), Acetate Buffer, global fit to a monomer-dimer-tetramer model; constant of: tetramer to dimers (KD2-4)
[4] = biological target: the molecule itself; assay: AUC; sedimentation velocity, 50,000 rpm, 293 K, Acetate Buffer, interference data, 30-181 µM, C(S) analysis
[5] = biological target: the molecule itself; assay: crystal structure; sitting drop vapour diffusion at 18 °C; spacegroup P6_(5)22, three copies in the asymmetric unit arranged as two dimer interfaces

Row | Protein | stoichiometry N [1] | Kd [2] | Kd [3] | stoichiometry N [4] | binding result [5]
1 | p18m-I269F (p18m_AUG2-I269F) (domain or fragment, S. cerevisiae, UniProt P08405 259-355, looked up, S. cerevisiae Ty1A (Ty1 Gag), Uniprot P08405, residues M259-N355 with I269F; source: E. coli BL21 (DE3), purified) MQSDTQEANDFVTLANLQYNGSTPADAFETKVTNIIDRLNNNGIHINNKVACQLIMRGLSGEYKFLRYTRHRHLNMTVAELFLDIHAIYEEQQGSRN | 2 | 0.74 µM | 45.3 µM | – | –
2 | p18m-F323S (domain or fragment, S. cerevisiae, UniProt P08405 259-355, looked up, S. cerevisiae Ty1A (Ty1 Gag), Uniprot P08405, with F323S; also called Dimer-2 interface-mutant p18m-F323S; source: E. coli BL21 (DE3), purified) MQSDTQEANDIVTLANLQYNGSTPADAFETKVTNIIDRLNNNGIHINNKVACQLIMRGLSGEYKSLRYTRHRHLNMTVAELFLDIHAIYEEQQGSRN | 2 | – | – | – | –
3 | p18m_AUG2-A273C (domain or fragment, S. cerevisiae, UniProt P08405 259-355, looked up, S. cerevisiae Ty1A (Ty1 Gag), Uniprot P08405, residues M259-N355 with A273C; source: bacterially expressed (E. coli), purified) MQSDTQEANDIVTLCNLQYNGSTPADAFETKVTNIIDRLNNNGIHINNKVACQLIMRGLSGEYKFLRYTRHRHLNMTVAELFLDIHAIYEEQQGSRN | 2 | – | – | – | –
4 | p18m (p18m_AUG2), Ty1 Gag residues M259-N355 (domain or fragment, S. cerevisiae, UniProt P08405 259-355, looked up, S. cerevisiae Ty1A (Ty1 Gag), Uniprot P08405, residues M259-N355, starting at the AUG2 methionine; also called WT p18m; source: E. coli BL21 (DE3), purified (Ni-NTA, gel filtration in Acetate Buffer)) MQSDTQEANDIVTLANLQYNGSTPADAFETKVTNIIDRLNNNGIHINNKVACQLIMRGLSGEYKFLRYTRHRHLNMTVAELFLDIHAIYEEQQGSRN | 2 | 0.73 µM | 43.2 µM | – | –
5 | p18m-A273V (p18m_AUG2-A273V), solution studies (domain or fragment, S. cerevisiae, UniProt P08405 259-355, looked up, S. cerevisiae Ty1A (Ty1 Gag), Uniprot P08405, residues M259-N355 with A273V; Tag removal is described only for the crystallographic sample; source: E. coli BL21 (DE3), purified) MQSDTQEANDIVTLVNLQYNGSTPADAFETKVTNIIDRLNNNGIHINNKVACQLIMRGLSGEYKFLRYTRHRHLNMTVAELFLDIHAIYEEQQGSRN | – | 0.34 µM | 51.8 µM | 2 | –
6 | Seleno-methionine p18m_AUG2 (crystallised) (domain or fragment, S. cerevisiae, UniProt P08405 259-355, looked up, seleno-methionine substituted, S. cerevisiae Ty1A (Ty1 Gag), Uniprot P08405, residues M259-N355; also called Se-Met p18m_(AUG2); source: E. coli B834 (DE3) in seleno-methionine medium, purified (Ni-NTA, gel filtration in Acetate Buffer)) MQSDTQEANDIVTLANLQYNGSTPADAFETKVTNIIDRLNNNGIHINNKVACQLIMRGLSGEYKFLRYTRHRHLNMTVAELFLDIHAIYEEQQGSRN | – | – | – | – | binds
7 | p18m_AUG1, Ty1 Gag residues M249-N355 (crystallised) (domain or fragment, S. cerevisiae, UniProt P08405 249-355, looked up, S. cerevisiae Ty1A (Ty1 Gag), Uniprot P08405, residues M249-N355, starting at the AUG1 methionine; Residues D262 to Q351 are visible in the map; source: E. coli BL21 (DE3), purified (Ni-NTA, carboxypeptidase A digestion, gel filtration)) MKILSKSIEKMQSDTQEANDIVTLANLQYNGSTPADAFETKVTNIIDRLNNNGIHINNKVACQLIMRGLSGEYKFLRYTRHRHLNMTVAELFLDIHAIYEEQQGSRN | – | – | – | – | binds
